Measured values: patent publication US20030219436A1
Each block holds one molecule with its values, some of them ahead of it.

Columns and labels:
[1] = target: ligand(s) that bind to CD83, on mouse cells (PBMC monocytes, lymph node lymphocytes, splenocytes); test: flow cytometry on mouse splenocytes
[2] = target: ligand(s) that bind to CD83, on human peripheral blood cells (monocytes, some lymphocytes); test: flow cytometry on fresh human PBMC, biotinylated CD83Ig + PE streptavidin
[3] = target: ligand(s) that bind to CD83, on mouse cells (PBMC monocytes, lymph node lymphocytes, splenocytes); test: flow cytometry on mouse PBMC
[4] = target: ligand(s) that bind to CD83, on mouse cells (PBMC monocytes, lymph node lymphocytes, splenocytes); test: flow cytometry on mouse lymph node lymphocytes

percent of cells bound (non-T cell population of splenocytes) [1]: 15%
percent of cells bound (CD3+ cells, lymphocyte gate) [2]: < 1%
percent of cells bound (CD3- cells, lymphocyte gate) [2]: 4%
percent of cells bound (larger cell scatter gate, monocytes) [2]: > 75%
percent of cells bound (monocytes in peripheral blood) [3]: 90%
percent of cells bound (lymphocytes from lymph nodes) [4]: < 5%
Molecule: human CD83-hIgG1 fusion protein (extracytoplasmic domain of human CD83 with a human IgG1 tail) (Fc fusion)

percent of cells bound (non-T cell population of splenocytes) [1]: 15%
percent of cells bound (monocytes in peripheral blood) [3]: 90%
percent of cells bound (lymphocytes from lymph nodes) [4]: < 5%
B1: human CD83 murine Ig fusion protein (human CD83 extracellular domain upstream of the murine IgG2a Fc domain) (Fc fusion)
chain: MSRGLQLLLLSCAYSLAPATPEVKVACSEDVDLPCTAPWDPQVPYTVSWVKLLEGGEERMETPQEDHLRGQHYHQKGQNGSFDAPNERPYSLKIRNTTSCNSGTYRCTLQDPDGQRNLSGKVILRVTGCPAQRKEETFKKYRAERSEPRGPTIKPCPPCKCPAPNSAGTSSVFIFPPKIKDVLMISLSPIVTCVVVDVSEDDPDVQISWFVNNVEVHTAQTQTHREDYNSTLRVVSALPIQHQDWMSGKEFKCKVNNKDLPAPIERTISKPKGSVRAPQVYVLPPPEEEMTKKQVTLTCMVTDFMPEDIYVEWTNNGKTELNYKNTEPVLDSDGSYFMYSKLRVEKKNWVERNSYSCSVVHEGLHNHHTTKSFSRTPGK
